According to the DeepSol protein solubility set:

Assay: soluble on expression in E. coli; label from the status in PepcDB or PDB records

Row | Sequence | soluble on expression in E. coli
1 | MGSDKIHHHHHHMKRKRIDGMNIEIITATIDMLEEIVAIQTAAFSEREPMTMSLNFTKEEMYDYFLKIIPESINSGLTMAAVDEDKGAIAAVVICFDAFAVFPNMEWTQKEIDGISKTNIFFEELEKPLNTNPAFKPEKCVRLMYVSTDENYLRRGIARKLGESMINRAIDLGYELMIADATNINSAGMFEKLGFWQEKVLPYKLVEKDGLKAFGNVEGECILYSRYLQENCFS | not soluble
2 | MGSDKIHHHHHHMKRLITQALDGEAGCILSDCEQYRYRLWREWDRSAPGLGFIMLNPSSADHQVNDPTITRCLQRALAGKYGRLEVVNLFPLRSTDPDGLLTHPAPLGDRPDRNECAIMDALDRCSLVICAWGAHKAAPARAAEVLRIVRMCGRGNLLYHLGLNKDGSPKHPLYIAKTKRPEPFTSIPVTQVNREYAPHR | not soluble
3 | MGSDKIHHHHHHMKRTVTVKLQPSKAQEETLKELAIISSKAWNKVNYLRRQEFFEGKPVDFLKTEKIVYEEFKSEIGSATVQQICRKNADAWRSFFSLIRSKRNGELPKWFKPKPPEYVKEGGLIILRNDQYKIEGNKLILKGLGKFKRLEVQFKGRIHLKGKQGKLEITYDPIKRKWYAHISYTVKEKLYGGEWVEVPRQPLGNLSAGIDLGVNNLMAVYVENGESFLVNGRPLKSIDFYWRERIADYQSKLNKSGAKKSRKLSRMHEKAKLQAKHYINTAVRQTVERLYHLGVSRIVVGYPKGISRNSNRGKKQNYLLSHVWRFNYVIKRLREVAEEYGIQVLIVDEAFTSKLCPVCGKPHKGQGLFEDYLSVPRRGLPLMPTWLELSTF | not soluble
4 | MGSDKIHHHHHHMKSQWECFLQNLGVWEGSFSNFSPEGTLLNDTSSRLCLEGLNNNQTVRLTLSRSGKDDVIREFRSVGGGLLFFENGSFSEGLIQLGPFSEFGGELAFVHENRRLRLVQLFDRNGHLNGLTLIREHLAGTPVAERPLLQINDLLGEWRGQAVTIYRDLRPPDIYSTTLKIQLDDAGRLMQSTSFGERTITSTATIKGSIVLFDQDPEKQVQVLLLPDGASATSPLKVQLRQPLFLEAGWLIQSDLRQRMIRSYNDKGEWVSLTLVTEERV | not soluble
5 | MGSDKIHHHHHHMKSRFYRPLSLASVSPSYFPEIALYVRNSGNYILYKNHDRQFTEEDRHRLERTNTSFLYVRSGDMDAVTEYLEQNLDTLLARDDIDSNAKGTILYQTAANYVTDVFDEPGKTADIIRCRSLIRHLMKYVAGHEDALKALQAITSQNYYIFTHSVQVAALMMLVHDRLFRLNQDEMIDVGIGSLLHDVGMVFLSGQLLDKPDALAAIEYHKAKQHAQKGYEHLQSAGTLSEVSLTIVRHHHEKYDGSGYPAGLKGDDIPRSAQLAALCDTYCAMTTDRPKHTALPGAEALRIMEDEVGGAFSPDLFYRFADVVKGKGKA | not soluble
6 | MGSDKIHHHHHHMKSWPRPCSWACANPETKGRAYRTMSSSPTISPASDTFAAMTDDHRLAEFIREQASATRVVIQARKRLSGGAIQENWLLDLLIEGGPWAGVRRWVLRSDALSALPASLDREQEFAVLQVVYQAGVKVPRPLWLCRDVRVHGRVFFLMEYVPGSAAGRALSTGAGPQGRAQLATQLGANLARLHQVRPPCATLCFLSVPDSSPALATIDAYRRYLDTLADAYPVLEWGLRWCELHAPRSSTLCLLHRDYRTGNYLASEEGLEAVLDWEFTGWGDPCEDLGWFTARCWRFTRPDLEAGGIGQLEDFLRGYHEVSSLCIERSRLHYWQVMATLRWAVIALQQGQRHLSGEEPSLELALTARLLPELELDILHMTGAEAP | not soluble
7 | MGSDKIHHHHHHMKTEITLLKGETVMVEPKEFLKAGQAFHGHKCPAMPMGLRVGAAAMNKLGVERSKDGQLLDLVELGDGHCATCFADGIQMITGCTFGKGNIKKLHYGKWGVTLIDTQTGRAVRVTPKAEAMLANKKSEFFTEYRMKHIPASKVPAEVVEPLVEKVMNAPDDMLLNIGDVFDYEVPPKVESFSGFVCDICGEMVVEGYGRPLDDKKVCQPCYEKAQREH | not soluble
8 | MGSDKIHHHHHHMKTKETPEQKPEDMPIPIVDITSVEQQTVSLNLPSYGVVTPKYKTQLVTEVQGRMLTISPQFVAGGIVKKGDQLAQIEPSDYEADLMQAEATLAQATAALNEEIARGEVAKIEFKGYDKGLPPELGLRIPQLKKEQANVKYAQAALARAQRNLERTIIRAPFDGIIKARNVDLGQYVTLGTNLGELYDTSIAEIRLPISNDDLAYLESVDNPDTQVTLSASLAGKENTWIGNIIRSEGVIDADNRMVYLVAEIKDPYLREHKTQGSLPLKYGSFVNAVIKGRTVDGIVKLPRHVVRNEHVALINDNNIVEMRHVNVVRSDLQNVFIKDSLKTGERVAITHFNNMANGQLVKVIGEETKPAQTPAPESSLAATGVK | not soluble
9 | MGSDKIHHHHHHMKVDLCARKQADAQASVGIIQREGGTARAYQCDIANPDSVRDFSVQLLEDSTPVDILVLSAAQWLEGALGEEDTDTDIVSTINSGLTGSILLTKTLLPSLRRSQSADILAMISVCGVPQFHDSIAHPAFFAAKHGLSGFSQNLAHHVAQENIRVTGFYPPDFEVTGFDDYPASGEKMGEHLLNARSIWETMRFVLTQPRSCHINAIHFQGPTRTDIGPY | not soluble
10 | MGSDKIHHHHHHMKVHVLASGSTGNAVLFQFGESKILVDAGISCRRIENGLQAIGTRAGELDAVLLTHEHTDHIKGLDVFIRKYQLPVFARPATWSKIDCRKKFPGECIKELEGTFSLGKVLIEPFAISHDAIDPVGFCFYYGKRKAVIATDLGMVSREVEKALSFSDIAVLESNHDPQMLKNGPYPPYLKKRIEGREGHLSNFDTARLLSTVPRHNPMQVLLAHISQQNNHPMLAQQTVSKIMQDSGCEVGREIGIYPTFPHHGITCTMTRVFAVNAPLFQWADLLAKQDGRGKAN | not soluble
11 | MGSDKIHHHHHHMKVLDVIKQIQQAIVYIEDRLLEPFNLQELSDYVGLSPYHLDQSFKMIVGQSPEEYARARKMTIAANDVVNGASRLMDVAKKYRYANSNDFANDFSDFHGISPIQATTKKDELKIQQRLYIKLSTTENAPYTYRLQETDDISLVGYSRFIPTEQLSNPFNIPDFLEDLLVDGYIKELKRYNDTSPYELFVVSCPLEQGLEIFVGVPSERYPSHLESRFLPGRHYALFNLQGEIDYATNEAWYYIESSLQLTLPYERNSLYVEIYPLDISFNDPFTKIQLWLPIKQEIYDLDEGYQN | not soluble
12 | MGSDKIHHHHHHMKVTFLGHAVVLIEGKKNIIIDPFISGNPVCPVKLEGLPKIDYILVTHGHGDHLGDAVEIAKKNDATVISNYEICHYLGKKGVKTHAMHIGGSYLFDFGRVKMTPAVHGSGILDGDSMIYGGNPSGFLITIEGKKIYHAGDTGLTREMELLAEENVDVAFLPIGGNFVMDVEDAVRAAVMIKPKKVVPMHYGTWELIFADVELFKKKVEEKGVECVILEPGESLEL | not soluble
13 | MGSDKIHHHHHHMKYREILEAAVRAPSGENCQPWRFVMEGDVIRIFNIPDQDTSLFNLHQRASYVAHGALLENLSIAAPAFGYAPDISLFPDSHVPNLVAAVRMTEGPSFDDSLYPYIPKRCTNRKRYNGGALSAAESQTLLSVAERVPGGKVALTGSVQDKAEVAEVNALNDRLVFENEHLHAFLFEHVRWSDAEARERGDGLDIKTLELAPPDSLAFPLLKSWPLVDFLKNFGVPRIIAGSARKLALSAAAIGVVSVPGKGDKDCIAAGRLIERVWLEATKLGLSFQLMTGITLLMRRVLDGETENISSQHGELIKKAYGTLANRFGVEDGSLFIMFRVGRCGPPSVYSMRYPIDKVIDAP | not soluble
14 | MGSDKIHHHHHHMLARGKTNLKIEEIRMHKHHEIHRVKPLMPALCRIRQGKKVINWETHTLTVDNNQIILFPCGYEFYIENYPEAGLYLAEMLYLPIDLIESFQKLYTVTDQIRNKTSFFLPQNPELIYCWEQLKTSVSRGFSTKIQEHLAMGVLLSLGVNHVNHLLLSYSKQSLISRCYNLLLSEPGTKWTANKVARYLYISVSTLHRRLASEGVSFQSILDDVRLNNALSAIQTTVKPISEIARENGYKCPSRFTERFHNRFNITPREIRKASRE | not soluble
15 | MGSDKIHHHHHHMLASDLLVIDFAQKDDVLKLYPEAPLLSSDKAQWDGIQLQYHRHPPHQLSENHSKQHRIIIHDRSPSPPMVEEMIEHRFQKRQFGYGDVTVVPADVLNSAYWNTEYEFITLSFEARTFARHTFDLTTATDIELVPSFSKPDQLIYSLGFALKSELESSGVGSRLYIDSLTAALMTHLLRHYSAQRSISRPQSGLAKCQLQKVIDFINQNLEQDLALAELAAIVQMSPSYFSTLFKHSTGLAPHQYVIQCRVDRAKQLLRQSNLTIAEIAYSLGFTHQSHLSRHFKRLVGVSPKVFIKSQ | not soluble
